Test results as given in publication PMC5031503.
Positions count from the first letter of the chain named. Names may count otherwise.

B1: GFP-Lpd (Lamellipodin, wild type), Q70E73 Y366F; Y426F; Y456F; Y466F; Y481F; Y510F (protein)
chain: MEQLSDEEIDHGAEEDSDKEDQDLDKMFGAWLGELDKLTQSLDSDKPMEPVKRSPLRQETNMANFSYRFSIYNLNEALNQGETVDLDALMADLCSIEQELSSIGSGNSKRQITETKATQKLPVSRHTLKHGTLKGLSSSSNRIAKPSHASYSLDDVTAQLEQASLSMDEAAQQSVLEDTKPLVTNQHRRTASAGTVSDAEVHSISNSSHSSITSAASSMDSLDIDKVTRPQELDLTHQGQPITEEEQAAKLKAEKIRVALEKIKEAQVKKLVIRVHMSDDSSKTMMVDERQTVRQVLDNLMDKSHCGYSLDWSLVETVSELQMERIFEDHENLVENLLNWTRDSQNKLIFMERIEKYALFKNPQNFLLGKKETAEMADRNKEVLLEECFCGSSVTVPEIEGVLWLKDDGKKSWKKRYFLLRASGIFYVPKGKAKVSRDLVCFLQLDHVNVYYGQDFRNKYKAPTDFCLVLKHPQIQKKSQFIKYLCCDDVRTLHQWVNGIRIAKYGKQLFMNYQEALKRTESAYDWTSLSSSSIKSGSSSSSIPESQSNHSNQSDSGVSDTQPAGHVRSQSIVSSVFSEAWKRGTQLEESSKARMESMNRPYTSLVPPLSPQPKIVTPYTASQPSPPLPPPPPPPPPPPPPPPPPPPPLPSQSAPSAGSAAPMFVKYSTITRLQNASQHSGALFKPPTPPVMQSQSVKPQILVPPNGVVPPPPPPPPPPTPGSAMAQLKPAPCAPSLPQFSAPPPPLKIHQVQHITQVAPPTPPPPPPIPAPLPPQAPPKPLVTIPAPTSTKTVAPVVTQAAPPTPTPPVPPAKKQPAFPASYIPPSPPTPPVPVPPPTLPKQQSFCAKPPPSPLSPVPSVVKQIASQFPPPPTPPAMESQPLKPVPANVAPQSPPAVKAKPKWQPSSIPVPSPDFPPPPPESSLVFPPPPPSPVPAPPPPPPPTASPTPDKSGSPGKKTSKTSSPGGKKPPPTPQRNSSIKSSSGAEHPEPKRPSVDSLVSKFTPPAESGSPSKETLPPPAAPPKPGKLNLSGVNLPGVLQQGCVSAKAPVLSGRGKDSVVEFPSPPSDSDFPPPPPETELPLPPIEIPAVFSGNTSPKVAVVNPQPQQWSKMSVKKAPPPTRPKRNDSTRLTQAEISEQPTMATVVPQVPTSPKSSLSVQPGFLADLNRTLQRKSITRHGSLSSRMSRAEPTATMDDMALPPPPPELLSDQQKAGYGGSHISGYATLRRGPPPAPPKRDQNTKLSRDW
B2: GFP-Lpd (Lamellipodin, wild type), Q70E73 Y426F; Y456F; Y513F; Y1226F (protein)
chain: B1 chain with F366Y, F466Y, F481Y, F510Y, Y513F, Y1226F
B3: GFP-Lpd (Lamellipodin, wild type), Q70E73 Y366F; Y426F; Y456F; Y466F; Y481F; Y510F; Y513F; Y1226F (protein)
chain: B1 chain with Y513F, Y1226F

Molecular target: Myc-tagged Scar/WAVE complex (Myc-Pir121, Myc-Nap1, Myc-Abi1d, Myc-WAVE2), Q96F07;Q9Y2A7;Q9Y6W5
Assay: co-immunoprecipitation, quantified western blot band intensities
Details: chain shown with the change; HEK293FT cells; n=4; Scar/WAVE2 normalized against the immunoprecipitated Lpd; parent: est. 100; read off a plot

Sequence of Myc-tagged Scar/WAVE complex (Myc-Pir121, Myc-Nap1, Myc-Abi1d, Myc-WAVE2), Q96F07;Q9Y2A7;Q9Y6W5 (chain, as listed by the source, chain 1 of 3): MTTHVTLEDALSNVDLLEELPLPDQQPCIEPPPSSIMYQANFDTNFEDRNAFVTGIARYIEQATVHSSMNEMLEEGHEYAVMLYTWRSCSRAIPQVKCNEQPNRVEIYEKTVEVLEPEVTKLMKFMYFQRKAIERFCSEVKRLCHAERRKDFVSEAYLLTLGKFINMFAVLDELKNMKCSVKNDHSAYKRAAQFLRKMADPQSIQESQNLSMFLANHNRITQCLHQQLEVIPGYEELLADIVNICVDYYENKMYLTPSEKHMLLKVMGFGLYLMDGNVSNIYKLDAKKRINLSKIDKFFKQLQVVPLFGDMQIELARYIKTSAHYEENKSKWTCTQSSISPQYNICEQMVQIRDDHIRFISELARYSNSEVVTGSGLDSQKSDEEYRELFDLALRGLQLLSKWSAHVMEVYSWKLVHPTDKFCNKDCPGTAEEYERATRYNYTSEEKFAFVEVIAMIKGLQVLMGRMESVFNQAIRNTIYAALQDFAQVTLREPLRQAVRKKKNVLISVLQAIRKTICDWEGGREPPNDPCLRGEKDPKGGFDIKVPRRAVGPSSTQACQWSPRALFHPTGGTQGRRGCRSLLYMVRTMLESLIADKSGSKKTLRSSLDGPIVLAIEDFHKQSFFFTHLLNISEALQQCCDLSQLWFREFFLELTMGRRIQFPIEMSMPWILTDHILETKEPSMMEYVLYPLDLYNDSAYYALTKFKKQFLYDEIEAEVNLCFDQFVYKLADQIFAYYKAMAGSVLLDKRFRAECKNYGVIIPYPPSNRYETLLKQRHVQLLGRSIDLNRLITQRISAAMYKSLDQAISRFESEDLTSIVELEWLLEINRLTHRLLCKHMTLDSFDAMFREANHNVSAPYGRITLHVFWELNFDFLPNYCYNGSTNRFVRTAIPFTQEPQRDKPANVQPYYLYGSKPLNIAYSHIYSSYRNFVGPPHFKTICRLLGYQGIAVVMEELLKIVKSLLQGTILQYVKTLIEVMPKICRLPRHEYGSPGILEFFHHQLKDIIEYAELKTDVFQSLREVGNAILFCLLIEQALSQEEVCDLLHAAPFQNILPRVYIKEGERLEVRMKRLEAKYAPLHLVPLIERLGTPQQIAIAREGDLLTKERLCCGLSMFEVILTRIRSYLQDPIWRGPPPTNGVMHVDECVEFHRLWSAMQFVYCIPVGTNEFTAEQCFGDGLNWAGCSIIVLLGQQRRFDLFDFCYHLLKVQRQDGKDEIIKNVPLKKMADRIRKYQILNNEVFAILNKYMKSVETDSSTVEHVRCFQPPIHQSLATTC
Sequence of Myc-tagged Scar/WAVE complex (Myc-Pir121, Myc-Nap1, Myc-Abi1d, Myc-WAVE2), Q96F07;Q9Y2A7;Q9Y6W5 (chain, as listed by the source, chain 2 of 3): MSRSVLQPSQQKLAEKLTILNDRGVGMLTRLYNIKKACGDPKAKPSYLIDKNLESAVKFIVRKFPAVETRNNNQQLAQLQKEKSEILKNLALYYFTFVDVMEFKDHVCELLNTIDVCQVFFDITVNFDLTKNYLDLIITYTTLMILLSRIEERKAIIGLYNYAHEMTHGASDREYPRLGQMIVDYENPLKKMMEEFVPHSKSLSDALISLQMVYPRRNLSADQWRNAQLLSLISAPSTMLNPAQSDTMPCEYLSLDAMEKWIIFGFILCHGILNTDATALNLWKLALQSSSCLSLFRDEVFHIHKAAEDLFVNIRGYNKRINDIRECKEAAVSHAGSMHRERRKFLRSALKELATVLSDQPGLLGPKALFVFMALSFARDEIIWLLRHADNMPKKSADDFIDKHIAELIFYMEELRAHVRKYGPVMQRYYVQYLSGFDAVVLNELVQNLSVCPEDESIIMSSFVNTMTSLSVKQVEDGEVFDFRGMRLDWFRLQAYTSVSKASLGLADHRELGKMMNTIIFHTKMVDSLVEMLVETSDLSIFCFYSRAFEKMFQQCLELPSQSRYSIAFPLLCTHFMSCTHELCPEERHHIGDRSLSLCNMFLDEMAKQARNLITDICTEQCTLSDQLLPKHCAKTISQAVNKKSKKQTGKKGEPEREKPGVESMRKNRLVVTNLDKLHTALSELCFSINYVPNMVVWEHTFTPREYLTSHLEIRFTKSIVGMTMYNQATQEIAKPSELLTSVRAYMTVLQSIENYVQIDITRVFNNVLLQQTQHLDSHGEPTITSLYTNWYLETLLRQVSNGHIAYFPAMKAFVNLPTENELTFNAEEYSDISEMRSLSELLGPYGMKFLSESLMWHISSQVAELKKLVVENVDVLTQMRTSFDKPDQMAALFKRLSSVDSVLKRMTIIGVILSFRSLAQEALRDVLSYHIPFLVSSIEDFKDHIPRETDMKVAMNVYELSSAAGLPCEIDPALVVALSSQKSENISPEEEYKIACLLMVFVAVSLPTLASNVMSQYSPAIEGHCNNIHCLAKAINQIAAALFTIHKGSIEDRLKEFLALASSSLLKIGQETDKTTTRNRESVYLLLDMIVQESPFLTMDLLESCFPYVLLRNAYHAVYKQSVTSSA
Sequence of Myc-tagged Scar/WAVE complex (Myc-Pir121, Myc-Nap1, Myc-Abi1d, Myc-WAVE2), Q96F07;Q9Y2A7;Q9Y6W5 (chain, as listed by the source, chain 3 of 3): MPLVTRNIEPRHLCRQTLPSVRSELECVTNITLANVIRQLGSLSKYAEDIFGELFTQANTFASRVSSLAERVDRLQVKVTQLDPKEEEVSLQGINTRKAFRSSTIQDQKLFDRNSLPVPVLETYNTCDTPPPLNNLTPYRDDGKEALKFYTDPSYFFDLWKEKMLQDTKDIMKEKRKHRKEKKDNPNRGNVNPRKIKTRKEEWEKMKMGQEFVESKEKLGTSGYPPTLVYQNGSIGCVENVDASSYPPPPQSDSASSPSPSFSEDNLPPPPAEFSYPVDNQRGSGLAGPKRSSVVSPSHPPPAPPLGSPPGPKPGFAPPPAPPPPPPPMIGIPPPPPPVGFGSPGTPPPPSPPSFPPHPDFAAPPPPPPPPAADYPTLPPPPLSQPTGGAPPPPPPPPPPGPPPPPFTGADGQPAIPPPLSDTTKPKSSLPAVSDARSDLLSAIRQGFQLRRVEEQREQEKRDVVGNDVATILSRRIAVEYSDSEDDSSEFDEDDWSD

percent of parent (% co-IP Lpd-WAVE2) | Binder
39 | B1
41 | B2
31 | B3
